Test results as given in article doi:10.1101/2022.03.04.482347.
Where “and” joins values, the source holds several entries; their conditions need not be identical. Equal entries are not always repeated.

Experiments:
[1] = target: mouse PROM1, photoreceptor-specific isoform SV8 (contains exon 19a), Flag-tagged (mouse); test: native gel or EMSA
[2] = target: mouse PROM1 SV8 lacking exon 19a, Flag-tagged (mouse); test: native gel or EMSA

| stoichiometry N [1] | stoichiometry N [2] | Substance |
| --- | --- | --- |
| 2 and 4 |  | mouse PROM1, photoreceptor-specific isoform SV8 (contains exon 19a), Flag-tagged (natural protein) |
|  | 2 and 4 | mouse PROM1 SV8 lacking exon 19a, Flag-tagged (natural protein) |
